Test results reported in US5686592.
pKd: −log10 of the molar value.

Experiments:
Test in all cases: filter
[1] = target: T1, mouse IgE (Mus musculus) (UniProt P06336)
T1 sequence: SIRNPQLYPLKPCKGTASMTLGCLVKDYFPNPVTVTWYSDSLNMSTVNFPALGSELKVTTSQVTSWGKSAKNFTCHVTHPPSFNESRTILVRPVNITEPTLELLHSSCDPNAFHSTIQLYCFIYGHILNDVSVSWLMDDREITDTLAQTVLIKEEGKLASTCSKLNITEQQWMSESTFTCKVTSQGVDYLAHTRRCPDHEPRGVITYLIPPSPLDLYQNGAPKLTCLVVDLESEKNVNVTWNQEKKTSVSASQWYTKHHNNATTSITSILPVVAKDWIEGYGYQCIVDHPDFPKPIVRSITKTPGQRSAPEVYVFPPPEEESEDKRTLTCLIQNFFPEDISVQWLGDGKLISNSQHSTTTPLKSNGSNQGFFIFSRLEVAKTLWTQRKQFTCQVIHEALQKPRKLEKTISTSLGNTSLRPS

[2] = test system: human IgE (Homo sapiens), P01854-1
[3] = target: T2, rat IgE (Rattus norvegicus) (UniProt P01855); conditions: 2'-NH2 on all C and U; specificity control
T2 sequence: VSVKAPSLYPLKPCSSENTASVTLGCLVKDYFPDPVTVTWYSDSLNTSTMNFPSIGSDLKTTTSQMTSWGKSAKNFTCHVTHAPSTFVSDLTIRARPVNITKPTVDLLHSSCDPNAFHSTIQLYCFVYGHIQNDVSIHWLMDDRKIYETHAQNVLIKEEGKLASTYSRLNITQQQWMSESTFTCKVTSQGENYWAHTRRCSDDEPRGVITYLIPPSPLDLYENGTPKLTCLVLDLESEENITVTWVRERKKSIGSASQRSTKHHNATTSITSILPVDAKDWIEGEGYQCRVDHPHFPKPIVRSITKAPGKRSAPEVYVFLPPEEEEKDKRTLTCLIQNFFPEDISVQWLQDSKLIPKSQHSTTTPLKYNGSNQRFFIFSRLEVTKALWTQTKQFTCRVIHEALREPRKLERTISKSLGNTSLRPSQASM

[4] = test system: human IgG (Homo sapiens); conditions: specificity control
[5] = 2'-NH2 on all C and U, specificity control
[6] = 2'-NH2 on all C and U, starting pool

Sequence of human IgE (Homo sapiens), P01854-1 (P01854 other isoform, or with tags, fused parts or gaps): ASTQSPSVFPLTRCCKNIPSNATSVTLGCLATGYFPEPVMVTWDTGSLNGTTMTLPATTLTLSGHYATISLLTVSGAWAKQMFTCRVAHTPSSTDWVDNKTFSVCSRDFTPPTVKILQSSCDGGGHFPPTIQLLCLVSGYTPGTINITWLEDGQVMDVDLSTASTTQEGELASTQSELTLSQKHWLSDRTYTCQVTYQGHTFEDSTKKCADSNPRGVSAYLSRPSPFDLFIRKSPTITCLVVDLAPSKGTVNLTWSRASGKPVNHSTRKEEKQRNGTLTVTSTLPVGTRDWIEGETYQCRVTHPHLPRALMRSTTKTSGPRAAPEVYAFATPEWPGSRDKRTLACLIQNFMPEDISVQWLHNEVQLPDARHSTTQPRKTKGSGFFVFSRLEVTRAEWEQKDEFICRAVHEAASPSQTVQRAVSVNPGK

## CTACCTACGATCTGACTAGCNNNNNNNNNNNNNNNNNNNNNNNNNNNNNNNNNNNNNNNNGCTTACTCTCATGTAGTTCC [Round 15 mouse IgE DNA pool]
[1]; enriched pool
  pKd: 7.70
[2]; mouse-IgE-enriched pool against human IgE
  pKd: < 4.30

## GGGAGGACGAUGCGGGUGUGAAUGGUGUUGUGAGG [IGEL1.2]
[1]; [5]
  pKd: < 5.30
[3]
  pKd: < 5.30

## CTACCTACGATCTGACTAGCNNNNNNNNNNNNNNNNNNNNNNNNNNNNNNNNNNNNNNNNGCTTACTCTCATGTAGTTCC [Round 15 human IgE DNA pool]
[2]; enriched pool, modified PBS, 1 mM Mg2+, 37 C
  pKd: 8.00

## CTACCTACGATCTGACTAGCNNNNNNNNNNNNNNNNNNNNNNNNNNNNNNNNNNNNNNNNGCTTACTCTCATGTAGTTCC [40NBHI starting DNA pool]
[1]; starting pool
  pKd: < 6.00
[2]; starting pool
  pKd: < 4.30

## GGGAGGACGAUGCGGNNNNNNNNNNNNNNNNNNNNNNNNNNNNNNNNNNNNNNNNCAGACGACUCGCCCGA [40N7 starting RNA pool]
[2]; [6]
  pKd: < 4.30

## GGGGCACGTTTATCCGTCCCTCCTAGTGGCGTGCCCC [D17.4]
[1]; specificity control
  pKd: < 5.00
[4]
  pKd: < 5.00

## GGGAGGACGAUGCGGGUGUGGGGCG [IGEL2.2]
[1]; [5]
  pKd: < 5.30
[3]
  pKd: < 5.30

## GGGAGGACGAUGCGGNNNNNNNNNNNNNNNNNNNNNNNNNNNNNNNNNNNNNNNNNNNNNNNNNNNNNNNNNNNNCAGACGACUCGCCCGA [60N7 starting RNA pool]
[2]; [6]
  pKd: < 4.30
